# Target: PcrV on Pseudomonas aeruginosa strain PA103 (type III secretion system) (Pseudomonas aeruginosa strain PA103)
# Experiment: cell-based or functional assay
row,Binder,"IC50 (nM), TTSS-dependent cytotoxicity assay (PA103 killing of P3-X63-Ag8 myeloma cells, propidium iodide flow cytometry)"
1,"Fab SEQ ID NOs. 35. 36 (Fab, V domains shown) VH: EVQLVESGGGVVQPGRSLRLSCAASGFTFSNYPMHWVRQAPGKGLEWVAVISYDGSEKWYADSVKGRFTISRDNSKNTLYLEMNSLRPEDTAVYYCARNRGDIYYDFTYAMDYWGQGTTVTVSS VL: DIQLTQSPSTLSASVGDSVTITCRASEGVDRWLAWYQQKPGRAPKLLIYDASTLQSGVPSRFSGSGSGTEFSLTISSLQPDDVATYYCQHFWSTPYTFGQGTKLEIK",61.4 nM
2,"Fab SEQ ID NOs: 13, 4 (Fab, V domains shown) VH: QVQLVESGGGVVQPGRSLRLSCAASGFTFSSYPLHWVRQAPGKGLEWVSFISYDGSEKYYASSVKGRFTISRDNSENTLYLQMNSLRPEDTAVYYCARNRGDIYYDFTYAMDIWGQGTMVTVSS VL: DIQMTQSPSSLSASVGDRVTITCRASQSISRWVAWYQQRPGKAPNLLIYDASSLKSGVPSRFSGSGSGTEFTLTISSLQPEDIATYYCQQFWSTPYTFGQGTKLEIK",20 nM
3,"Fab SEQ ID NOs: 13, 37 (Fab, V domains shown) VH: QVQLVESGGGVVQPGRSLRLSCAASGFTFSSYPLHWVRQAPGKGLEWVSFISYDGSEKYYASSVKGRFTISRDNSENTLYLQMNSLRPEDTAVYYCARNRGDIYYDFTYAMDIWGQGTMVTVSS VL: DIQMTQSPSSLSASVGDRVTITCRASQSISRWVAWYQQRPGKAPNLLIYDASSLKSGVPSRFSGSGSGTEFTLTISSLQPEDIATYYCQQFWGTPYTFGQGTKLEIK",12 nM
4,"Fab SEQ ID NOs: 13, 10 (Fab, V domains shown) VH: QVQLVESGGGVVQPGRSLRLSCAASGFTFSSYPLHWVRQAPGKGLEWVSFISYDGSEKYYASSVKGRFTISRDNSENTLYLQMNSLRPEDTAVYYCARNRGDIYYDFTYAMDIWGQGTMVTVSS VL: DIQLTQSPSFLSASVGDRVTITCRASQGISTYLAWYQQKPGKAPKLLIYDASALQSGVPSRFSGSGSGTEFTLTISSLQPEDVATYYCQQFWSTPYTFGQGTKLEIK",25.5 nM
5,"Fab SEQ ID NOs. 24, 26 (Fab, V domains shown) VH: EVQLVESGGGVVQPGRSLRLSCAASGFTFSNYPMHWVRQAPGKGLEWVAVISYDGSEKWYADSVKGRFTISRDNSKNTLYLEMNSLRPEDTAVYYCARNRGDIYYDFTYAMDIWGQGTTVTVSS VL: DIQLTQSPSTLSASVGDSVTITCRASEGVDRWLAWYQQKPGRAPKLLIYDASTLQSGVPSRFSGSGSGTEFSLTISSLQPDDVATYYCQHFWGTPYTFGQGTKLEIK",25.5 nM
6,"Fab SEQ ID NOs 3, 4 (Fab, V domains shown) VH: QVQLVESGGGVVQPGGSLRLSCAASGFTFSTAGMHWVRQAPGKGLEWVAVIWYNGKEISYADSVKGRFTVSRDNPKNTLYLQMSSLRTEDTAVYYCARNRGDIYYDFTYAMDIWGQGTMVTVSS VL: DIQMTQSPSSLSASVGDRVTITCRASQSISRWVAWYQQRPGKAPNLLIYDASSLKSGVPSRFSGSGSGTEFTLTISSLQPEDIATYYCQQFWSTPYTFGQGTKLEIK",35.1 nM
7,"Fab SEQ ID NOs: 5, 6 (Fab, V domains shown) VH: QVQLVESGGGVVQPGRSLRLSCTASGFSFSSYGMHWVRQAPGKGLEWVAVIWYNGKEISYADSVKGRFTVSRDNPKNTLYLQMSSLRTEDTAVYYCARNRGDIYYDFTYAMDIWGQGTMVTVSS VL: AIQLTQSPSFLSASVGDRVTITCRASQGISTYLAWYQQKPGKAPKLLIYAASSLQSGVPSRFSGSGSGTDFTLTISSLQPEDVATYYCQQFWSTPYTFGQGTKLEIK",50.2 nM
